Data reported in US20240003871A1, “IPSC-DERIVED ASTROCYTES AND METHODS OF USE THEREOF” (FUJIFILM Cellular Dynamics, Inc., priority 2022, published 2024).

Test system: Astrocytes
Test: Luminex assay of proteins secreted by astrocytes after cytokine stimulation
Assay type: cell-based, human
Settings: stimulation in basal medium for 24 hours; average of four lots
Procedure: FIGS. 8A-8J: Astrocytes from four lots were thawed and cultured for 7 days in Astro 3 media, before stimulation in basal medium for 24 hours. Supernatant was collected and assayed using a custom Luminex assay from R&D on the FLEXMAP 3D instrument, according to manufacturer's instructions. Each condition was run in duplicate, with the average of all four lots compared to the control (unstimulated) condition to calculate fold change. Error bars are +/−1 SEM. […] The combination of IFN-gamma with TNF-alpha produced the highest fold-change over control, with over 84-fold secretion of IL-1ra compared to control. IL-1ra binds to cell surface IL-1 receptors, blocking binding of pro-inflammatory IL-1alpha and IL-1beta. […] TNF-alpha combined with either IL-1alpha or IL-1beta increased IL-6 secretion by over 3300-fold compared to control. IL-6 attracts pro-inflammatory T cells and promotes demyelination. […] TNF-alpha combined with either IL-1alpha or IL-1beta increased IL-8 secretion by over 12,000-fold compared to control. IL-8/CXCL8 is secreted by astrocytes to attract pro-inflammatory immune cells after insults. This analyte also plays a role in recruitment and differentiation of oligodendrocyte precursor cells (OPCs) to promote remyelination. […] TNF-alpha alone, or combined with IL-1alpha, IL-1beta or IFN-gamma increased IL-10 secretion by over 1000-fold compared to control. IL-10 is secreted by astrocytes to reduce iNos activity and reduce astrogliosis. […] TNF-alpha alone, or combined with IL-1alpha, IL-1beta or IFN-gamma increased CCL5/RANTES secretion by over 2500-fold compared to control. CCL5/RANTES controls the movements of peripheral immune cells. […] TNF-alpha combined with IL-1alpha or IL-1beta increased CCL7 secretion by over 15,000-fold compared to control. CCL7 is important for astrocyte-microglia interactions and induces microglia activation. […] Stimulation with IL-1alpha or TNF-alpha alone increased CCL20 secretion by over 18-fold over unstimulated control. TNF-alpha combined with IL-1alpha, IL-1beta or IFN-gamma increased CCL20 secretion by over 100-fold compared to control. CCL20 is secreted by astrocytes in response to pro-inflammatory stimuli and attracts T-cells, B-cells and DCs. […] Stimulation with IL-1alpha increased CXCL1 secretion by 84-fold over unstimulated control. TNF-alpha combined with IL-1alpha or IL-1beta increased CXCL1 secretion by over 450-fold compared to control. CXCL1 is secreted by astrocytes to recruit neutrophils to the site of infection, and increases BBB permeability. […] CXCL2 activates CXCR2, found on oligodendrocytes and OPCs, which increases OPC proliferation and differentiation. […] CXCL5 is secreted by astrocytes in response to injury and activates microglia, resulting in decreased microglia phagocytosis and inhibition.
Astrocytes from four lots were thawed and cultured for 7 days in Astro 3 media, before stimulation in basal medium for 24 hours. Supernatant was collected and assayed using a custom Luminex assay from R&D on the FLEXMAP 3D instrument, according to manufacturer's instructions. […] The combination of IFN-gamma with TNF-alpha produced the highest fold-change over control, with over 84-fold secretion of IL-1ra compared to control. IL-1ra binds to cell surface IL-1 receptors, blocking binding of pro-inflammatory IL-1alpha and IL-1beta.

For TNF-alpha, the “CCL7 secretion, fold change over unstimulated control” value was 1184 fold, the “IL-1ra secretion, fold change over unstimulated control” value (shortened to “IL-1ra secretion, fold change”) was “three” and the “IL-8/CXCL8 secretion, fold change over unstimulated control” value was 898 fold.

B1: IFN-gamma: cytokine used to stimulate astrocytes (protein, UniProt P01579 24-161, looked up)
Interferon gamma: QDPYVKEAENLKKYFNAGHSDVADNGTLFLGILKNWKEESDRKIMQSQIVSFYFKLFKNFKDDQSIQKSVETIKEDMNVKFFNSNKKKRDDFEKLTNYSVTDLNVQRKAIHELIQVMAELSPAAKTGKRKRSQMLFRG
With B1 the “IL-1ra secretion, fold change” value was “robust secretion”, the “IL-6 secretion, fold change over unstimulated control” value was 32 fold and the “IL-10 secretion, fold change over unstimulated control” value was 161 fold.

B2: IL-1alpha: pro-inflammatory cytokine used to stimulate astrocytes (protein, UniProt P01583 113-271, looked up)
Interleukin-1 alpha: SAPFSFLSNVKYNFMRIIKYEFILNDALNQSIIRANDQYLTAAALHNLDEAVKFDMGAYKSSKDDAKITVILRISKTQLYVTAQDEDQPVLLKEMPEIPKTITGSETNLLFFWETHGTKNYFTSVAHPNLFIATKQDYWVCLAGGPPSITDFQILENQA
With B2 the “CCL5/RANTES secretion, fold change over unstimulated control” value was 156 fold, the “CCL7 secretion, fold change over unstimulated control” value was 2177 fold and the “CXCL1 secretion, fold change over unstimulated control” value was 84 fold. The “CXCL2 secretion, fold change over unstimulated control” value was 379 fold, the “CXCL5 secretion, fold change over unstimulated control” value was 161 fold and the “IL-1ra secretion, fold change” value was “three”. For the same molecule, the “IL-6 secretion, fold change over unstimulated control” value was “over 400 fold”, the “IL-8/CXCL8 secretion, fold change over unstimulated control” value was “over 3300 fold” and the “IL-10 secretion, fold change over unstimulated control” value was “over 415 fold”.
